Here are results for two substances from doi:10.1101/2021.03.15.435411.

The target of assay [1] is WAVE1ΔN, minimal Arp2/3-activating fragment of human WAVE1 (PVCA) (human). Put plainly: FRET or BRET. Background: In BRET a luciferase serves as donor, and the signal depends on an acceptor being close.
For assay [2] the target is unchanged. Put plainly: FRET or BRET. This is another data set of the same source.
For assay [3], the target named is Native bovine (β, γ)-actin (bovine) (UniProt P60712). Put plainly: TIRF microscopy, KD calculated from rate constants.
Assay [4] shares this target. Put plainly: single-filament TIRF microscopy.
The target is the same in assay [5]. Description: single-molecule / single-filament TIRF microscopy.

“And” between values parts separate entries of the source, which are not always exact repeats. Equal values may be shown once. Read-outs that look alike come from different tables or passages of the source.

On to “Atto540Q-quencher labeled Acanthamoeba castellani actin monomers (natural protein)”, for which the percent quenching of NPF donor fluorescence in assay [1] is 14%; in assay [2], 59% and 69%.

“Capping protein lacking the last 23 amino acids of the β subunit (CPαβΔ23) (from UniProt P47753;P47757-2) (complex)”: the fold reduction of affinity against wild-type CP in assay [3] was 10 fold. In assay [4], this substance had a fold change of koff against wild-type CP of 3 fold. In assay [5], this substance yielded a fold change of kon against wild-type CP of 3 fold.
